# From patent US20140256912A1, “Stabilized Variant MAML Peptides and Uses Thereof” (PRESIDENT AND FELLOWS OF HARVARD COLLEGE, priority 2011, published 2014)
# Bridge positions count the residues as written; N and C are the ends. Square brackets hold non-standard residues; d marks the D form. Ends that are not written are not given here. S5 = C=CCCC[C@](C)(N)C(=O)O; βAla = NCCC(=O)O
# Key:
# [1] = target: T1, Bio-sdnMAML1 binding to GST-RAMANK1-CSL (Homo sapiens, UniProt P46531+Q06330); test: ALPHAscreen NTC competition assay; conditions: titration of unlabeled peptide (FIG. 2h)
# T1 construct: RAMANK1 (residues 1761-2127) and GST-labeled RAMANK1; Human CSL bearing a C-terminal hexahistidine tag (residues 9-435); hexahistidine (His6) (C); made in house; host or cells: E. coli BL21(DE3) pLysS (proteins); solid-phase peptide synthesis (Bio-sdnMAML1)
# T1 sequence (P46531 1760-2126): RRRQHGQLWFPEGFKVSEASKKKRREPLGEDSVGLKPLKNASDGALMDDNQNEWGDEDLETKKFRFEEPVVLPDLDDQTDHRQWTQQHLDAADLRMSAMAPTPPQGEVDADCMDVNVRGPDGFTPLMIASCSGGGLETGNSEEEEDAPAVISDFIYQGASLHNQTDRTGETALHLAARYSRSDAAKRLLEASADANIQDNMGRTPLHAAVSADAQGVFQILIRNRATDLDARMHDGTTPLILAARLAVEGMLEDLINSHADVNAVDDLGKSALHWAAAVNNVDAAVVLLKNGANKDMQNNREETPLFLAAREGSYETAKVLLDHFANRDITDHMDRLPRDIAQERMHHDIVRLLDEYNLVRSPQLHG
# T1 sequence (Q06330 23-449): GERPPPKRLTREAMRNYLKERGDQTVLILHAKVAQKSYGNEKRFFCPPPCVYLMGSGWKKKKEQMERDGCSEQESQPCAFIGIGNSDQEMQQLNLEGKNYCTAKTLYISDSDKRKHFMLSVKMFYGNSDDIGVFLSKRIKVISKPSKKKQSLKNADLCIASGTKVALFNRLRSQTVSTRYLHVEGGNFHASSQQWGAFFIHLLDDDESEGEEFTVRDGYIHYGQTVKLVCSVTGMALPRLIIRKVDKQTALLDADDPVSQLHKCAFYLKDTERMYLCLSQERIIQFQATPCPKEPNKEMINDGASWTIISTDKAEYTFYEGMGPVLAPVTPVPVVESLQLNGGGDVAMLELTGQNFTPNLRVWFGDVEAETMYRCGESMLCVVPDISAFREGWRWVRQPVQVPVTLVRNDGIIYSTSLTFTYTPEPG
# Text: The biophysics of NTC assembly has been studied using relatively low-throughput assays including electrophoretic-mobility shift assays^24, isothermal titration calorimetry^49, and various immunoprecipitation strategies. More recently, Del Bianco et al. reported the use of a FRET-based system measuring the proximity of a donor fluorophore-labeled ANK protein to an acceptor-labeled oligonucleotide upon NTC assembly, which allowed determination of relative equilibrium constants for the entire complex^45. We also reported the use of surface plasmon resonance (SPR) and fluorescence polarization assays measuring the association of NTC components with each other and with stapled peptides^37. To date however, there are no high-throughput assays reported that quantitatively measure dnMAML1-NOTCH-CSL complex formation. […] The ALPHAscreen technology (ALPHA meaning amplified luminescence proximity homogenous assay) employs functionalized beads approximately 200 nm in diameter to detect the association of cognate binding partners in solution^50,51. […] The use of microwave-assisted peptide synthesis and a slightly altered SPPS protocol readily afforded the biotinylated sdnMAML1 peptide (bio-sdnMAML1, and others with alternative N-terminal modifications) at greater than 95% purity by LCMS analysis (FIG. 2b, FIG. 7). […]
# [2] = target: ICN1-CSL complex (Homo sapiens, UniProt P46531+Q06330); conditions: cited from earlier work
# Chain of ICN1-CSL complex (P46531 1754-2555 limits assumed): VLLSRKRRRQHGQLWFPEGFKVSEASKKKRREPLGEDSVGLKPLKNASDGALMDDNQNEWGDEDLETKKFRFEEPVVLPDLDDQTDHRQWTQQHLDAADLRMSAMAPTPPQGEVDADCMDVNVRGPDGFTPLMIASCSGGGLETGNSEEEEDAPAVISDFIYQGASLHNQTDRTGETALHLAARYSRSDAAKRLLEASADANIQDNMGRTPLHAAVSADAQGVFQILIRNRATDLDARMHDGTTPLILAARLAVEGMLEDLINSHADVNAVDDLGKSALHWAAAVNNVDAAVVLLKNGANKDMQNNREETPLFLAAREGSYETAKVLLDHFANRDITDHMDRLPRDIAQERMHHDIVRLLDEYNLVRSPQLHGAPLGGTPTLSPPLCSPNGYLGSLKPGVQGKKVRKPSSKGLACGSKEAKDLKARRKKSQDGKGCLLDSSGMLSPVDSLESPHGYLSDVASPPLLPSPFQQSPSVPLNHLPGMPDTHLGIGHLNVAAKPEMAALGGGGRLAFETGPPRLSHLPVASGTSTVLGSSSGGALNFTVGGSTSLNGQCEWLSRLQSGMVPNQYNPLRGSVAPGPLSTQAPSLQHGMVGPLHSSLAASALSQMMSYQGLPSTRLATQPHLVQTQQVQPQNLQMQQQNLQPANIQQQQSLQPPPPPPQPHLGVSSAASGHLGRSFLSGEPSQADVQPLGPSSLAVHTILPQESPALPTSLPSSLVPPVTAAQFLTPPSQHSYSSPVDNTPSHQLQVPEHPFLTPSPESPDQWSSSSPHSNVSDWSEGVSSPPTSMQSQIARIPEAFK
# Chain of ICN1-CSL complex (Q06330 whole entry): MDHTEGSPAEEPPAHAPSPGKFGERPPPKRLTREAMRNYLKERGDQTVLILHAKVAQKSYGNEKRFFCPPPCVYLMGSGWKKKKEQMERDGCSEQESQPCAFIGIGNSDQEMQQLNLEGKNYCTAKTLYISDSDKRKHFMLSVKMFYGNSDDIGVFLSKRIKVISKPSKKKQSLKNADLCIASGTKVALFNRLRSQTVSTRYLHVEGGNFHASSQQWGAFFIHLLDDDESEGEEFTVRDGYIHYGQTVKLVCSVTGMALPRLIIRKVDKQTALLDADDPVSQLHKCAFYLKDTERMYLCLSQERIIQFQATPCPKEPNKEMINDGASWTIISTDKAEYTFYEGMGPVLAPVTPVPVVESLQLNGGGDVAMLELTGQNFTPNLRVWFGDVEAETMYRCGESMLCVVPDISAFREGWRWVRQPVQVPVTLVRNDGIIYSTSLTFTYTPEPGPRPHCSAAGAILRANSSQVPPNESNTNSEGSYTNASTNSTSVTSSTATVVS
# [3] = tested on: Notch target genes (HES1, MYC, DTX1); conditions: incubated with human T-ALL cells; cited from earlier work
Substance,dissociation of pre-incubated bio-sdnMAML1-GSTRAMANK1-CSL complex [1],binding to ICN1-CSL complex and competition with MAML1 [2],expression of canonical Notch target genes [3]
"Ac-sdnMAML1: non-labeled competitor dnMAML1 peptide capped with an acetylated beta-alanine spacer ({Ac-βAla}-HSAVMERLRRRIELCRRHHSTCEARYEAVSPERLELERQHTFALHQRCIQAKAKR; staple (positions not given here); also: stapled, staple positions not given here)",dose-dependent dissociation of the complex,–,–
"SAHM1: stapled MAML1 E21-T36 peptide with E28 and R32 replaced by i→i+4 ligated α,α-disubstituted S5 amino acids; previously reported (Ac-W[βAla]ERLRRRI[S5]LCR[S5]HHST; staple 10-14)",–,specifically bind the ICN1-CSL complex and competitively inhibit binding of recombinant dnMAML1 as well as full-length MAML1,inhibit the expression of a panel of canonical Notch target genes
